{"source": "patent US20070212679", "proteins": {"B1": {"name": "His6-Parkin (full-length human Parkin fused to an N-terminal histidine tag, from E. coli, refolded) (protein)", "chain": "IYICTIIIIISSGLVPRGSGMKETAAAKFERQHMDSPDLGTDDDDKAMADIGSAATMIVFVRFNSSHGFPVEVDSDTSIFQLKEVVAKRQGVPADQLRVIFAGKELRNDWTVQNCDLDQQSIVHIVQRPWRKGQEMNATGGDDPRNAAGGCEREPQSLTRVDLSSSVLPGDSVGLAVILHTDSRKDSPPAGSPAGRSIYNSFYVYCKGPCQRVQPGKLRVQCSTCRQATLTLTQGPSCWDDVLIPNRMSGECQSPHCPGTSAEFFFKCGAHPTSDKETPVALHLIATNSRNITCITCTDVRSPVLVFQCNSRHVICLDCFHLYCVTRLNDRQFVHDPQLGYSLPCVAGCPNSLIKELHHFRILGEEQYNRYQQYGAEECVLQMGGVLCPRPGCGAGLLPEPDQRKVTCEGGNGLGCGFAFCRECKEAYHEGECSAVFEASGTTTQAYRVDERAAEQARWEAASKETIKKTTKPCPRCHVPVEKNGGCMHMKCPQPQCRLEWCWNCGCEWNRVCMGDHWFDV"}}, "target": "T1, human GST-E1 (Boston Biochem), P22314", "T1 chain": "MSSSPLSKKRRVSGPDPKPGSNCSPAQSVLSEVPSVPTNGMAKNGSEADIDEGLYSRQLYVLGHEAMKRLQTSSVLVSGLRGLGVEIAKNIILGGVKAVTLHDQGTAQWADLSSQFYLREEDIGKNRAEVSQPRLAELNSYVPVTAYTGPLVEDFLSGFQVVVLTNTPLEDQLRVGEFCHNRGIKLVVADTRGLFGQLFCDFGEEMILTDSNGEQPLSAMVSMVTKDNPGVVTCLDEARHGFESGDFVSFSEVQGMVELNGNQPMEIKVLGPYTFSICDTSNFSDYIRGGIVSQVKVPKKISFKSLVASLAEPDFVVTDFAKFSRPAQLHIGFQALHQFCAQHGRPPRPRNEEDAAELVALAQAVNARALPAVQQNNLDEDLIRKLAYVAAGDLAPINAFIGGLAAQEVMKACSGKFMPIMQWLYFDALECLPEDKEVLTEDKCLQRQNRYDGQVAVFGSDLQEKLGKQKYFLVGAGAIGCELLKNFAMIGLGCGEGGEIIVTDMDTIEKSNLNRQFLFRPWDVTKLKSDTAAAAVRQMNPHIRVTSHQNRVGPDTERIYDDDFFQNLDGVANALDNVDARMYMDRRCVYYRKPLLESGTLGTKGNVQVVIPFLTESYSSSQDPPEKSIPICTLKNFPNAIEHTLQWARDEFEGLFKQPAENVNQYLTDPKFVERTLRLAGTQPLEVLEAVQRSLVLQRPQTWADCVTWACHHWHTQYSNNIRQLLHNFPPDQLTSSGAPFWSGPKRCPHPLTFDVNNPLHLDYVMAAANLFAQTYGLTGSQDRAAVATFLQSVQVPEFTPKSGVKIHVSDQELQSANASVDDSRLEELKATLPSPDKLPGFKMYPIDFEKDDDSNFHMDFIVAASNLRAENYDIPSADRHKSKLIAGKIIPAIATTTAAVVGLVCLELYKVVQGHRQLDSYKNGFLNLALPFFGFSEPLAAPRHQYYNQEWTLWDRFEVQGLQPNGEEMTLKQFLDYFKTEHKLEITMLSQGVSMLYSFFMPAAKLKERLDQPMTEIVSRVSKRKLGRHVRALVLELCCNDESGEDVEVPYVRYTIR", "data": [{"protein": "B1", "values": [{"measurement": "ubiquitination of Parkin in the absence of UbcH7 (biotin-ubiquitin detected on blot with NeutrAvidin-HRP)", "value": "some reaction product was seen in the absence of UbcH7 when Parkin was incubated with E1 and ubiquitin for 90 minutes"}]}]}
